Publication doi:10.1101/781922 (bioRxiv, 2019)

Target: T1, Arabidopsis TIR1, coexpressed with AtASK1 (His10-eGFP-FLAG-(TEV)-AtTIR1 and His10-(TEV)-AtASK1) (Arabidopsis, UniProt Q570C0;Q39255)
T1 sequence 1: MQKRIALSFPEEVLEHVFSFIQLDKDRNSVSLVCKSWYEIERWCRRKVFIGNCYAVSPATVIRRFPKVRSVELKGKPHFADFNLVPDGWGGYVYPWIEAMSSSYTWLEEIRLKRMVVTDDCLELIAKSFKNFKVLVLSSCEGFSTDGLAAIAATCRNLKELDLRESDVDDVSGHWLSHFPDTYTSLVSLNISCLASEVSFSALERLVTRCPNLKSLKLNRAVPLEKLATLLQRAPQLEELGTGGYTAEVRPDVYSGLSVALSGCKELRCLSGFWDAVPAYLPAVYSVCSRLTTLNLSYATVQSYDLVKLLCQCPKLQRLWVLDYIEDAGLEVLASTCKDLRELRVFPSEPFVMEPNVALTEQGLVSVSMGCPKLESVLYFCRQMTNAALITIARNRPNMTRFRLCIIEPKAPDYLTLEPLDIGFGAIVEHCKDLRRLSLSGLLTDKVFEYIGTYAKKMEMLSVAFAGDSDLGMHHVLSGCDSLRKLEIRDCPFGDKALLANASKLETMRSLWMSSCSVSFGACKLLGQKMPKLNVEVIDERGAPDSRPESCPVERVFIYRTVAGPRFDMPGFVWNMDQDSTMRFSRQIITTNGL
T1 sequence 2: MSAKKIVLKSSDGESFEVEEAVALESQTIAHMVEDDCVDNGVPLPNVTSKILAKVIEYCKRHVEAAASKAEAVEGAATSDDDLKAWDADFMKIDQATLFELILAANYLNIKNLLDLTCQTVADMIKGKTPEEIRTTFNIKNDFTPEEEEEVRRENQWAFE
Assay: NMR titration

B1: AXR3 DI/DII (N-terminal half, domains I and II, of the Aux/IAA protein AXR3/IAA17) (domain or fragment)
chain: MMGSVELNLRETELCLGLPGGDTVAPVTGNKRGFSETVDLKLNLNNEPANKEGSTTHDVVTFDSKEKSACPKDPAKPPAKAQVVGWPPVRSYRKNVMVSCQ
- binding result: binds
